The results in this text go back to patent publication CN115521375A (INST PASTEUR SHANGHAI CAS, dated 2022).

Test [1] deals with SARS-CoV-2原型株(Wt)假病毒的S蛋白 (SARS-CoV-2, UniProt P0DTC2 14-1273). Nature of the test: cell-based or functional assay.
The target in test [2] is T1, SARS-CoV-2原型株RBD蛋白 (SARS-CoV-2, UniProt P0DTC2 320-550). The experiment in a line: BLI, prototype RBD on the sensor, antibody in solution. A general note: In BLI a coated tip is dipped into the sample, and binding shifts an interference pattern.
In test [3] the target is T1, SARS-CoV-2原型株RBD蛋白. Nature of the test: ELISA, coated antigen. On the technique in general: In an ELISA, binding on a coated surface is turned into a signal by an enzyme label.
In test [4] the target is T2, SARS-CoV-2原型株NTD蛋白 (SARS-CoV-2, UniProt P0DTC2 16-294).
T2 construct: range 16-294
Nature of the test: ELISA, coated antigen.

B1: 单抗5G2 (antibody)
heavy: EVLLQQSGPELVKPGASVKIPCKASGYTFTDYNMDWVKQSHGKSLEWIGDINPNSGFIIYNQKFKGKASLTVDKSSSTAYMELRSLTSEDTAVYYCAREGYGNNFDYWGQGTTLSVSSAKTTPPSVYPLAPGCGDTTGSSVTLGCLVKGYFPESVTVTWNSGSLSSSVHTFPALLQSGLYTMSSSVTVPSSTWPSQTVTCSVAHPASSTTVDKKLEPSGPISTINPCPPCKECHKCPAPNLEGGPSVFIFPPNIKDVLMISLTPKVTCVVVDVSEDDPDVQISWFVNNVEVHTAQTQTHREDYNSTIRVVSTLPIQHQDWMSGKEFKCKVNNKDLPSPIERTISKIKGLVRAPQVYILPPPAEQLSRKDVSLTCLVVGFNPGDISVEWTSNGHTEENYKDTAPVLDSDGSYFIYSKLNMKTSKWEKTDSFSCNVRHEGLKNYYLKKTISRSPGK
light: DILLTQSPTILSVSPGERVSFSCRASQSIGTSIHWYQQRTKGSPRLLIKYASESISGIPSRFSGSGSGTDFTLSINSVESEDIGDYYCQQSYSWPTTFGAGTKLELK
notes: also called 抗体5G2
As a reminder, the Kd is a measure of binding affinity in units of concentration. Consider B1, for which, in test [1], the “半数抑制浓度(IC50), 假病毒中和试验” value worked out at 0.293 µg/mL. The molecule also returned a Kd in test [2] of less than 1 pM.

B2: 单抗3H3 (antibody, V domains shown)
VH: QVQLQQPGAELVRPGASVKLSCKASGYSFTRFWMNWVKQRPGQGLEWIGMIHPSDSETRLNQKFKDKATLTVDKSSTTAYMQLSSPTSEDSAVYYCARKDYDYDAWFAYWGQGTLVTVSA
VL: DIVLTQSPASLAVSLGQRATISCRASKSVSASVYSYMHWYQQKPGQPPKLLIYLASSLESGVPARFSGSGSGTDFTLNIHPVEEEDAATYYCHHSRELPPAFGGGTKLEIKR
notes: also called 抗体3H3
B2: the binding result in test [3] and in test [4] was “no binding” in each case. For the same molecule, in test [1], the “中和IC50, 假病毒中和试验” value was 0.083 µg/mL.
